Experimental data as given in article PMC4163662.

Tests used:
[1] = target: GST-Shroom3 SD2 R1838C (mouse) (UniProt Q9QXN0); test: pull-down; GST-Shroom3 SD2 variants bound to glutathione beads, His-tagged hRock1 SBD soluble; 2 hours at room temperature; washed with NETN; SDS-PAGE, Coomassie Blue
[2] = target: GST-Shroom3 SD2 R1838A (mouse) (UniProt Q9QXN0); test: as above

UniProt Q9QXN0, sequence (Q9QXN0 1562-1986, stated change not applied): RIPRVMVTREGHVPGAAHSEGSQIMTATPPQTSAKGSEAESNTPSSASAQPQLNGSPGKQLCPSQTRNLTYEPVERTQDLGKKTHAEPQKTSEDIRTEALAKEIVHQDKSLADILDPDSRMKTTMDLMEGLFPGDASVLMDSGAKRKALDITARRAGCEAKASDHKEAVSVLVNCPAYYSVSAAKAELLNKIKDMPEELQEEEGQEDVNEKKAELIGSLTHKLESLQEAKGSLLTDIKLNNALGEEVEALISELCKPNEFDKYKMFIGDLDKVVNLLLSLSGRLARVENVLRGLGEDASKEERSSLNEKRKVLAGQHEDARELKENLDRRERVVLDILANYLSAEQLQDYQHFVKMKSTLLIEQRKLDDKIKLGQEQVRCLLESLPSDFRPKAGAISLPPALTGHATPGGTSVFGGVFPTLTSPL

percent reduction in binding relative to wild type [1]: 95%
percent reduction in binding relative to wild type [2]: 45%
Substance: His-tagged human Rock1 Shroom-Binding domain (SBD), amino acids 707-946 (from UniProt Q13464 707-946) (domain or fragment)
